In patent US20250066508A1 (SHENYANG SUNSHINE PHARMACEUTICAL, published 2025):

B1: Narsoplimab (antibody, human IgG4 S228P, lambda, V domains shown)
VH: QVTLKESGPVLVKPTETLTLTCTVSGFSLSRGKMGVSWIRQPPGKALEWLAHIFSSDEKSYRTSLKSRLTISKDTSKNQVVLTMTNMDPVDTATYYCARIRRGGIDYWGQGTLVTVSS
VL: QPVLTQPPSLSVSPGQTASITCSGEKLGDKYAYWYQQKPGQSPVLVMYQDKQRPSGIPERFSGSNSGNTATLTISGTQAMDEADYYCQAWDSSTAVFGGGTKLTVLG
notes: also called positive control antibody; Control Narsoplimab
B2: 169-IgG4 (antibody, V domains shown)
VH: QVQLQESGPGLVKPSETLSLTCTVSGGSISSSSYYWGWIRQPPGKGLEWIGSIYYSGSTYYNPSLKSRVTISVDTSKNQFSLKLSSVTAADTAVYYCARDRRGRFDPWGQGTMVTVSS
VL: SYELMQPPSMSVSPGQTASITCSGDKLGDIYAYWYQQKPGQSPVLVIYQDNKRPSGIPERFSGSNSGNTATLTISGTQAMDEADYYCQAWESSTGVFGGGTKLTVLG
notes: expressed in HEK293F; also called preferred antibody

Experiments:
[1] = target: Mouse MASP2-CCP1/2-SP-RQSA (mouse, UniProt Q91WP0 298-685); test: ELISA, antigen coated 20 ng/well
Protocol: (§1) The enzyme-linked immunosorbent assay (ELISA) method used in the following examples is described as follows: the microplate was coated with the corresponding recombinant protein, and PBST containing 1% bovine serum albumin (PBST is phosphate buffer containing 0.05% Tween-20) was used to block the microplate. The antibody to be tested was serially diluted, then transferred to the above-mentioned microplate coated with recombinant protein, followed by incubation at room temperature for half an hour. After washing the plate, appropriately diluted HRP (Horseradish Peroxidase)-labeled goat anti-human antibody (Fc specific, purchased from Sigma) was added, followed by incubation at room temperature for half an hour. After washing the plate, 100 μl of chromogenic solution with TMB (3,3′,5,5′-Tetramethylbenzidine) was added as substrate to each well, followed by incubation at room temperature for 1 to 5 minutes. 50 μl stop solution (2M H₂SO₄) was added to stop the reaction. OD450 was read by a plate reader (SpectraMax 190). GraphPad Prism7 was used for graphing and data analyzing, and EC₅₀/IC₅₀ was calculated.

[2] = target: Rat MASP2-CCP1/2-SP-RQSA (rat, UniProt Q9JJS8 298-685); test: ELISA, antigen coated 20 ng/well
Protocol: as §1

[3] = target: T1, MASP3-CCP1/2-SP-RQSA (human); test: ELISA, plate coated with MASP3-CCP1/2-SP-RQSA (20 ng/well), HRP goat anti-human Fc, OD450
T1 construct: also called human MASP-3; human MASP3-CCP1/2-SP-RQSA
T1 chain: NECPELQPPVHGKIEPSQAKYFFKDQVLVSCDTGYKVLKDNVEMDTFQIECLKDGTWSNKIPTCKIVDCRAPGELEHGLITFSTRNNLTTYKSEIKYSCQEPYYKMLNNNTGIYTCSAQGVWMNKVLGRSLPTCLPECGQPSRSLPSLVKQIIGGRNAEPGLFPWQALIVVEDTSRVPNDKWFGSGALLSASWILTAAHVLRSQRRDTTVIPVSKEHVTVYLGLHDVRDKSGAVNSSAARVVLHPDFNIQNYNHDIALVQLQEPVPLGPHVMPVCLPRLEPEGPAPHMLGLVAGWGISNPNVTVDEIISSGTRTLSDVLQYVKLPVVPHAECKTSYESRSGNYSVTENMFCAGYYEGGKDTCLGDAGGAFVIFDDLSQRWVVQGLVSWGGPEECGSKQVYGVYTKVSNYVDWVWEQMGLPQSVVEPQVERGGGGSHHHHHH
Protocol: as §1

[4] = target: Human MASP-2 (human, UniProt O00187 16-686); test: cell-based or functional assay
[5] = target: T2, MASP2-CCP1/2 (human, UniProt O00187 298-443); test: ELISA, antigen coated 20 ng/well
T2 construct: also called CCP1/2 domain of MASP-2
Protocol: as §1

[6] = target: T3, Rhesus MASP2-CCP1/2-SP-RQSA (rhesus macaque, UniProt O00187 298-686 (human entry), limits assumed); test: ELISA, antigen coated 20 ng/well
T3 construct: also called rhesus macaque MASP-2
Protocol: as §1

[7] = target: T4, MASP2-CCP1/2-SP-RKSA (human, UniProt O00187 298-686); test: ELISA, antigen coated 20 ng/well
Protocol: as §1
(§2) The smaller the EC₅₀ and the larger the Top, the stronger the binding effect is.

[8] = target: T5, MASP2-CCP1/2-SP-RQ (human, UniProt O00187 298-686); test: ELISA, antigen coated 20 ng/well
Protocol: as §1, §2

[9] = target: T4, MASP2-CCP1/2-SP-RKSA; test: SPR, Biacore 8K, antibody captured on Protein A/G chip, antigen as analyte
Excerpt: (§3) Here, the affinity between the above antibodies and MASP2-CCP1/2-SP-RKSA or MASP2-CCP1/2-SP-RQ was detected by Biacore 8K (GE healthcare). On Biacore 8K, a chip conjugated with Protein A/G was used to capture various antibodies, and then the above two recombinations were used as analytes (Analyte) to flow through the chip to obtain the binding-dissociation curve, and regeneration buffer was used to regenerate the chip and proceed to the next cycle; Biacore 8K Evaluation Software was used to analyze the data.

[10] = target: T5, MASP2-CCP1/2-SP-RQ; test: as above
Excerpt: as §3

[11] = target: T6, MASP2-SP-RQSA (human, UniProt O00187 445-686, limits assumed); test: ELISA, plate coated with MASP2-SP-RQSA (20 ng/well), HRP goat anti-human Fc, OD450
T6 construct: also called SP domain of MASP-2
Protocol: as §1

[12] = target: T7, MASP1-CCP1/2-SP-RQSA (human, UniProt P48740 299-699); test: ELISA, plate coated with MASP1-CCP1/2-SP-RQSA (20 ng/well), HRP goat anti-human Fc, OD450
T7 construct: also called human MASP-1; human MASP1-CCP1/2-SP-RQSA
T7 chain: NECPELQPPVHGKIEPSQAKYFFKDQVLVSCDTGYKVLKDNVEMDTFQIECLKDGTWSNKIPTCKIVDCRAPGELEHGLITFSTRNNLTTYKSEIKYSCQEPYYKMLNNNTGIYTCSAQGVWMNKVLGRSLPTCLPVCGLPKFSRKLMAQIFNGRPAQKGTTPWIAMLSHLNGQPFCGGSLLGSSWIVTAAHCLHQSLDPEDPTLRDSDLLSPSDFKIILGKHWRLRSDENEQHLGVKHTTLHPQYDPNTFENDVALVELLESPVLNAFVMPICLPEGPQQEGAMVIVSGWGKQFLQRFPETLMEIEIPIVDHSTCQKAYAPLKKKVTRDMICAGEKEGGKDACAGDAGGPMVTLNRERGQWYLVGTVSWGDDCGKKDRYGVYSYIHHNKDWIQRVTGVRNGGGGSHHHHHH
Protocol: as §1

T5 sequence (O00187 other isoform, or with tags, fused parts or gaps limits assumed): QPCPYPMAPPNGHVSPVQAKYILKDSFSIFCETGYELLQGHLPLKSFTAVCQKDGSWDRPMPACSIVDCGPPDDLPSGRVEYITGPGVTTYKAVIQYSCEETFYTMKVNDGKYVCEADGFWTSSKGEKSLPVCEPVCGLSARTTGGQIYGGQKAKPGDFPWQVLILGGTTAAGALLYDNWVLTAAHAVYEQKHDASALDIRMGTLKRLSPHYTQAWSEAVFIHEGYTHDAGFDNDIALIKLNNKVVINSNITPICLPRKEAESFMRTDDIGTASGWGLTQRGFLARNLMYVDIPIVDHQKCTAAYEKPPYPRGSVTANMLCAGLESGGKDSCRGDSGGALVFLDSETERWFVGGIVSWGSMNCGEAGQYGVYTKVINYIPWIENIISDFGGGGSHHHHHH
T4 sequence (O00187 other isoform, or with tags, fused parts or gaps limits assumed): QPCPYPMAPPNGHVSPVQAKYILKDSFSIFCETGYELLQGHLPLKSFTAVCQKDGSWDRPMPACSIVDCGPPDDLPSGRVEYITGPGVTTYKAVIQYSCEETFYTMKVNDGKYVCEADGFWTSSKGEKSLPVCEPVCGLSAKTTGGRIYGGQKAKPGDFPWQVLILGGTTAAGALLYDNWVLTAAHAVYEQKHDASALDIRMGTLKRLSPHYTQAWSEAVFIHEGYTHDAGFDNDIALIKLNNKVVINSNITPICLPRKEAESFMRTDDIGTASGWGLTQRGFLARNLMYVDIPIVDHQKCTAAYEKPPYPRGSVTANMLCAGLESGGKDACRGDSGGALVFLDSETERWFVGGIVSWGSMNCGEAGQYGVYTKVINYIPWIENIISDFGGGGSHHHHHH
Sequence of Human MASP-2 (O00187 16-686 limits assumed): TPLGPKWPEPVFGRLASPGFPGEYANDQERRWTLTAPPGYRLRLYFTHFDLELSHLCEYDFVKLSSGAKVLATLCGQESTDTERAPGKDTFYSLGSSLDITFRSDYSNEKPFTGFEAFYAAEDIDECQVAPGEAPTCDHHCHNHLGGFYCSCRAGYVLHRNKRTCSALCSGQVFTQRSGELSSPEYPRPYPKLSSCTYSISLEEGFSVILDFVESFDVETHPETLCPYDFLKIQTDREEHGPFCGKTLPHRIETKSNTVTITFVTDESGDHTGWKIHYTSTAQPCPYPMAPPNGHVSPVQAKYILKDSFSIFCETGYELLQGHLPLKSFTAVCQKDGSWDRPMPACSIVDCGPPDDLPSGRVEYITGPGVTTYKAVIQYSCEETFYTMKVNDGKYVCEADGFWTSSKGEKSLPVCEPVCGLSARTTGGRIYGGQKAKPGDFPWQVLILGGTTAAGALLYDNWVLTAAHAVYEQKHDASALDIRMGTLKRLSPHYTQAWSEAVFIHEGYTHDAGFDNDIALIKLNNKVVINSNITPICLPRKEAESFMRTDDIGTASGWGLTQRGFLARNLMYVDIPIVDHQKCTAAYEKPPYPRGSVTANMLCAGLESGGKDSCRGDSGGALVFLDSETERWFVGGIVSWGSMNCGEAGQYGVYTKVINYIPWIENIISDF
Sequence of Mouse MASP2-CCP1/2-SP-RQSA (Q91WP0 other isoform, or with tags, fused parts or gaps limits assumed): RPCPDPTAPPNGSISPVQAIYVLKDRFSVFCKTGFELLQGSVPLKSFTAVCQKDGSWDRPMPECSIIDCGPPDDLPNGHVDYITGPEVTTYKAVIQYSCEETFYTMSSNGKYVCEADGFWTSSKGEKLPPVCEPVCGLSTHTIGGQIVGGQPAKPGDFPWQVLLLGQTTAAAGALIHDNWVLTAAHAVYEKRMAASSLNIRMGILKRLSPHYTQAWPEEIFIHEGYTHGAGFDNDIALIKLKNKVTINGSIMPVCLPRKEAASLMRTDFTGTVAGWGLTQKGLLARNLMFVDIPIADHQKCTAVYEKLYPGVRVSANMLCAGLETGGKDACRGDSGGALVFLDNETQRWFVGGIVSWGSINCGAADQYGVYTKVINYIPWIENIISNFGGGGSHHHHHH
Sequence of Rat MASP2-CCP1/2-SP-RQSA (Q9JJS8 other isoform, or with tags, fused parts or gaps limits assumed): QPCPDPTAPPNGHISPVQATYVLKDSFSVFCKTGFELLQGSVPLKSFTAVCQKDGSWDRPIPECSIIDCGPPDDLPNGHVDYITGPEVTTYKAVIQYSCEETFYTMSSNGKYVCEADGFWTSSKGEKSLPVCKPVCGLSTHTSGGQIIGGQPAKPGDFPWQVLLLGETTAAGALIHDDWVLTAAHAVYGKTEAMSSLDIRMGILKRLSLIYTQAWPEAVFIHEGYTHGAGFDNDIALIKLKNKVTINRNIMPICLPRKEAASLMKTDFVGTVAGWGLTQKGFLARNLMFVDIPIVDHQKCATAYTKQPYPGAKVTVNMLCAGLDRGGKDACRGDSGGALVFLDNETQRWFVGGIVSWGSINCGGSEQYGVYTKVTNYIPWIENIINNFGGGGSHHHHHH
T3 sequence (O00187 other isoform, or with tags, fused parts or gaps limits assumed): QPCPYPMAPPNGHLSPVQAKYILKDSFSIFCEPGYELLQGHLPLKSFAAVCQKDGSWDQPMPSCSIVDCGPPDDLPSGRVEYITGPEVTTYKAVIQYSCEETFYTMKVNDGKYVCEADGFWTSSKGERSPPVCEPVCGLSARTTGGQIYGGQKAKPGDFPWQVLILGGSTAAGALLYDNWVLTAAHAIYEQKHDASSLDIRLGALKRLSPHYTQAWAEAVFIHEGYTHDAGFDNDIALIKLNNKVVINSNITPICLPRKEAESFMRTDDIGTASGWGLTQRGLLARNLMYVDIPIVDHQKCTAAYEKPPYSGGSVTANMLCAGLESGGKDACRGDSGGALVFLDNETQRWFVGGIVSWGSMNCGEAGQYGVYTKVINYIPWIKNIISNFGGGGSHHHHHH
T2 sequence (O00187 other isoform, or with tags, fused parts or gaps limits assumed): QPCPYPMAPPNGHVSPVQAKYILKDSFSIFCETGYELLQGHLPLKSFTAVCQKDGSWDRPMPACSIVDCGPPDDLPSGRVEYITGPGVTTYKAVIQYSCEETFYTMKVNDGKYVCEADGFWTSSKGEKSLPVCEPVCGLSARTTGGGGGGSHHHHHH
T6 sequence (O00187 other isoform, or with tags, fused parts or gaps limits assumed): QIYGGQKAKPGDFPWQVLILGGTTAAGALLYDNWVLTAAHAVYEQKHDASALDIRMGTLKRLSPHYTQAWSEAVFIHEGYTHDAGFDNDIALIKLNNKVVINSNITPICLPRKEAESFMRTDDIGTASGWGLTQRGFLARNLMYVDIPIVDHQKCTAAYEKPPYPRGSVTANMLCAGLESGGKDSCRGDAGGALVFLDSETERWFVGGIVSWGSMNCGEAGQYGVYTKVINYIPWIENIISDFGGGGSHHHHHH

Binder	EC50 [1]	EC50 [2]	binding result [3]	IC50 of C3 deposition on mannan-coated microplates (40 µg/ml mannan, 1% human plasma) [4]	IC50 of C3 deposition on mannan-coated microplates (100 µg/ml mannan, 1% human plasma) [4]	EC50 [5]	EC50 [6]	EC50 [7]	EC50 [8]	Kd [9]	koff [9]	kon [9]	Kd [10]	koff [10]	kon [10]	binding result [11]	binding result [12]
B1	0.169 nM	0.455 nM	no binding (tested: 100 nM (Log(Ab nM) = 2))														
B2	0.19 nM	0.231 nM	no binding (tested: 100 nM (Log(Ab nM) = 2))	0.0888 nM	0.0996 nM	0.146 nM	0.136 nM	0.106 nM	0.136 nM	38.6 nM	0.00382 s⁻¹	99200 M⁻¹ s⁻¹	4.82 nM	0.00361 s⁻¹	750000 M⁻¹ s⁻¹	no binding (tested: 100 nM (Log(Ab nM) = 2))	no binding (tested: 100 nM (Log(Ab nM) = 2))
